Data from article PMC6683157.

What was measured:
[1] = target: T1, Csm2 (wild type);Psy3 (wild type) (Saccharomyces cerevisiae;Saccharomyces cerevisiae) (UniProt P40465+Q12318); experiment: fluorescence anisotropy; conditions: heparin preparation, Anisotropy: 20 mM Tris pH 8.0, 20-25 nM DNA (2.5-5 nM in Fig 4d), EMSA: 25 mM Tris-HCl pH 8.0, 50 mM NaCl
T1 sequence 1: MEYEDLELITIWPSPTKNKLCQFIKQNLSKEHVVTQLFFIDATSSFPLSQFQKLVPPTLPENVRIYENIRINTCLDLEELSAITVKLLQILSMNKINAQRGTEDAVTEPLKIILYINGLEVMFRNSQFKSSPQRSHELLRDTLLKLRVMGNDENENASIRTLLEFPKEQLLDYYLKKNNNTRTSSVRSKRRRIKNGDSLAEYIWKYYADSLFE
T1 sequence 2: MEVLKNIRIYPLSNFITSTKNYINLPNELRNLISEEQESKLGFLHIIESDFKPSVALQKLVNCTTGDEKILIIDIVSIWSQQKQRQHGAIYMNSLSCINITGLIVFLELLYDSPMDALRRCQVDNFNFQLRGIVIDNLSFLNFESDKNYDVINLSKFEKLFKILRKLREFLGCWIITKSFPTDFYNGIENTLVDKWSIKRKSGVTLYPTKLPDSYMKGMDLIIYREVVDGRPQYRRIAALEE

[2] = target: T2, Csm2 (wild type);Psy3 (wild type);Shu1;Shu2 (Saccharomyces cerevisiae;Saccharomyces cerevisiae;Saccharomyces cerevisiae;Saccharomyces cerevisiae) (UniProt P40465+Q12318+P38751+P38957); experiment: fluorescence anisotropy; conditions: 5 nM DNA, quadratic fit; N21 of strand 1 = THF abasic analog (ssDNA at ss/ds junction); Anisotropy: 20 mM Tris pH 8.0, 20-25 nM DNA (2.5-5 nM in Fig 4d), protein titrated from 1 M NaCl stock; EMSA: 25 mM Tris-HCl pH 8.0, 50 mM NaCl, 1 mM DTT …
T2 sequence 1: T1 sequence 1
T2 sequence 2: T1 sequence 2
T2 sequence 3: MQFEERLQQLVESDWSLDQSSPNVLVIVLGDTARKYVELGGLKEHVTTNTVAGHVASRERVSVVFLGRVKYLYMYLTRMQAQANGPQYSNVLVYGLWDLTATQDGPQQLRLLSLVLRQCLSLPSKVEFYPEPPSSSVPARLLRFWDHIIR
T2 sequence 4: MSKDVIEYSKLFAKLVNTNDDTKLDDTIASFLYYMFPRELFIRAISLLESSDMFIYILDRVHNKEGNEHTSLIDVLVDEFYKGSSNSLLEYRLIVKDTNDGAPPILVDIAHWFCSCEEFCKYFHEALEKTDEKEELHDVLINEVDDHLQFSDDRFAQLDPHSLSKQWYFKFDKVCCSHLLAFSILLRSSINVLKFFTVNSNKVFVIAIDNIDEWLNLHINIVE

[3] = N31 of strand 1 = THF abasic analog, protein titrated from 1 M NaCl …, 1 mM DTT, 100 u
[4] = N20 of strand 1 = THF abasic analog, protein titrated from 1 M NaCl …, 1 mM DTT, 100 u

Sequence: TTTTTTTTTNTTTTTTTTTTCTTGACAAGCTTGCGCACTG / CAGTGCGCAAGCTTGTCAAGTTTTTTTTTTTTTTTTTTTT [AP1 double-flap]
- Kd ([1]; N10 of strand 1 = THF abasic analog (dSpacer), protein titrated from 1 M NaCl stock, 1 mM DTT …): 105 nM

Sequence: TTTTTTTTTTTTTTTTTTTTCTTGACAAGCNTGCGCACTG / CAGTGCGCAAGCTTGTCAAGTTTTTTTTTTTTTTTTTTTT [AP4 double-flap]
- Kd [1, 3]: 131 nM

Sequence: CAGTGCCGAAGCTTGTCAAGTTTTTTTTTTNTTTTTTTTT / TTTTTTTTTTTTTTTTTTTTCTTGACAAGCTTGCGCACTG [AP5 double-flap]
- Kd [1, 3]: 142 nM

Sequence: TTTTTTTTTTTTTTTTTTTTNTTGACAAGCTTGCGCACTG / CAGTGCGCAAGCTTGTCAAGTTTTTTTTTTTTTTTTTTTT [AP3 double-flap]
- Kd ([1]; N21 of strand 1 = THF abasic analog, protein titrated from 1 M NaCl …, 1 mM DTT, 100 u): 104 nM

Sequence: CAGTGCCGAAGCTTGTCAAGNTTTTTTTTTTTTTTTTTTT / TTTTTTTTTTTTTTTTTTTTCTTGACAAGCTTGCGCACTG [AP6 double-flap]
- Kd ([1]; text gives 71, N21 of strand 1 = THF abasic analog (ssDNA at ss/ds junction), protein titrated from 1 M NaCl stock, 1 mM DTT …): 72 nM
- Kd [2]: 72 nM

Sequence: CAGTGCCGANGCTTGTCAAGTTTTTTTTTTTTTTTTTTTT / TTTTTTTTTTTTTTTTTTTTCTTGACAAGCTTGCGCACTG [AP8 double-flap]
- Kd ([1]; N10 of strand 1 = THF abasic analog (in dsDNA), protein titrated from 1 M NaCl stock, 1 mM DTT …): 153 nM

Sequence: CAGTGCCGAAGCTTGTCAANTTTTTTTTTTTTTTTTTTTT / TTTTTTTTTTTTTTTTTTTTCTTGACAAGCTTGCGCACTG [AP7 double-flap]
- Kd [1, 4]: 112 nM

Sequence: TTTTTTTTTTTTTTTTTTTNCTTGACAAGCTTGCGCACTG / CAGTGCGCAAGCTTGTCAAGTTTTTTTTTTTTTTTTTTTT [AP2 double-flap]
- Kd [1, 4]: 127 nM
